Data from PMC4763257, “A replaceable liposomal aptamer for the ultrasensitive and rapid detection of biotin”.

B1: ST-21M liposomal aptamer (structured_DNA)
DNA: ATTGACCTCTGTGTGACGCAACACTCAAT
modifications: 3'-TEG-cholesterol
B2: ST-21 liposomal aptamer (structured_DNA)
DNA: ATTGACCGCTGTGTGACGCAACACTCAAT
modifications: 3'-TEG-cholesterol

Target: streptavidin (UniProt P22629 25-183)
Test: plate binding assay, liposome SRB fluorescence; at least 10-fold over aptamer-free liposomes; displaced by biotin; Streptavidin (10 ug/ml) coated plate, blocked with 1% BSA and 0.01 mg/ml salmon sperm DNA in TBS; 80 ul liposomal aptamer 1 h at RT; washes in TBS-sucrose; pH and salt not given
Conditions: protein: commercial; chain copies: 4; label: SRB-encapsulating liposome

streptavidin, sequence (P22629 25-183): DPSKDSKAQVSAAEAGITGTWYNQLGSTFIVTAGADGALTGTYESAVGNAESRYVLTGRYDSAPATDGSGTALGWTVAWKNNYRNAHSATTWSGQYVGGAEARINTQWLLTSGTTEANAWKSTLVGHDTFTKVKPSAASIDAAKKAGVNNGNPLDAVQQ

Row | Binder | binding result
1 | B1 | binds
2 | B2 | binds
